{"source": "the Human Domainome abundance scans (Beltran et al. 2025)", "parents": {"B1": {"name": "Ubiquitin-protein ligase residues 30 to 86; numbered along this chain, Q05086 (parent)", "chain": "KHLIERYYHQLTEGCGNEACTNEFCASCPTFLRMDNNAAAIKALELYKINAKLCDPH"}}, "note": "± gives the uncertainty stated by the source."}
{"variants_of": "B1", "assay": "abundance fitness (aPCA) (normalised: wild type 0, dead -1); higher = more abundant; growth selection in yeast, the domain comes from the species named", "conditions": "Homo sapiens"}
{"variant": "KHLIERYYHQLTEGCGNEACTNEFCASCPYFLRMDNNAAAIKALELYKINAKLCDPH", "abundance fitness": "-0.216 ± 0.13"}
{"variant": "KHLIERYYHQLTEGCGNEACTNEFCASCPRFLRMDNNAAAIKALELYKINAKLCDPH", "abundance fitness": "0.044 ± 0.074"}
{"variant": "KHLIERYYHQLTEGCGNEACTNEFCASCPWFLRMDNNAAAIKALELYKINAKLCDPH", "abundance fitness": "-0.006 ± 0.12"}
{"variant": "KHLIERYYHQLTEGCGNEACTNEFCASCPGFLRMDNNAAAIKALELYKINAKLCDPH", "abundance fitness": "0.025 ± 0.063"}
{"variant": "KHLIERYYHQLTEGCGNEACTNEFCASCPIFLRMDNNAAAIKALELYKINAKLCDPH", "abundance fitness": "-0.042 ± 0.059"}
{"variant": "KHLIERYYHQLTEGCGNEACTNEFCASCPSFLRMDNNAAAIKALELYKINAKLCDPH", "abundance fitness": "0.016 ± 0.081"}
{"variant": "KHLIERYYHQLTEGCGNEACTNEFCASCPNFLRMDNNAAAIKALELYKINAKLCDPH", "abundance fitness": "-0.052 ± 0.13"}
{"variant": "KHLIERYYHQLTEGCGNEACTNEFCASCPEFLRMDNNAAAIKALELYKINAKLCDPH", "abundance fitness": "-0.055 ± 0.089"}
{"variant": "KHLIERYYHQLTEGCGNEACTNEFCASCPLFLRMDNNAAAIKALELYKINAKLCDPH", "abundance fitness": "-0.083 ± 0.075"}
{"variant": "KHLIERYYHQLTEGCGNEACTNEFCASCPDFLRMDNNAAAIKALELYKINAKLCDPH", "abundance fitness": "-0.071 ± 0.12"}
{"variant": "KHLIERYYHQLTEGCGNEACTNEFCASCPVFLRMDNNAAAIKALELYKINAKLCDPH", "abundance fitness": "-0.083 ± 0.066"}
{"variant": "KHLIERYYHQLTEGCGNEACTNEFCASCPAFLRMDNNAAAIKALELYKINAKLCDPH", "abundance fitness": "0.018 ± 0.074"}
{"variant": "KHLIERYYHQLTEGCGNEACTNEFCASCPQFLRMDNNAAAIKALELYKINAKLCDPH", "abundance fitness": "-0.048 ± 0.11"}
{"variant": "KHLIERYYHQLTEGCGNEACTNEFCASCPKFLRMDNNAAAIKALELYKINAKLCDPH", "abundance fitness": "0.012 ± 0.096"}
{"variant": "KHLIERYYHQLTEGCGNEACTNEFCASCPMFLRMDNNAAAIKALELYKINAKLCDPH", "abundance fitness": "-0.153 ± 0.093"}
{"variant": "KHLIERYYHQLTEGCGNEACTNEFCASCPPFLRMDNNAAAIKALELYKINAKLCDPH", "abundance fitness": "-0.097 ± 0.11"}
{"variant": "KHLIERYYHQLTEGCGNEACTNEFCASCPCFLRMDNNAAAIKALELYKINAKLCDPH", "abundance fitness": "-0.022 ± 0.11"}
{"variant": "KHLIERYYHQLTEGCGNEACTNEFCASCPTFLGMDNNAAAIKALELYKINAKLCDPH", "abundance fitness": "0.014 ± 0.06"}
{"variant": "KHLIERYYHQLTEGCGNEACTNEFCASCPTFLDMDNNAAAIKALELYKINAKLCDPH", "abundance fitness": "-0.245 ± 0.13"}
{"variant": "KHLIERYYHQLTEGCGNEACTNEFCASCPTFLLMDNNAAAIKALELYKINAKLCDPH", "abundance fitness": "-0.148 ± 0.1"}
{"variant": "KHLIERYYHQLTEGCGNEACTNEFCASCPTFLIMDNNAAAIKALELYKINAKLCDPH", "abundance fitness": "-0.1 ± 0.15"}
{"variant": "KHLIERYYHQLTEGCGNEACTNEFCASCPTFLAMDNNAAAIKALELYKINAKLCDPH", "abundance fitness": "-0.099 ± 0.087"}
{"variant": "KHLIERYYHQLTEGCGNEACTNEFCASCPTFLKMDNNAAAIKALELYKINAKLCDPH", "abundance fitness": "0.033 ± 0.16"}
{"variant": "KHLIERYYHQLTEGCGNEACTNEFCASCPTFLMMDNNAAAIKALELYKINAKLCDPH", "abundance fitness": "-0.145 ± 0.12"}
{"variant": "KHLIERYYHQLTEGCGNEACTNEFCASCPTFLCMDNNAAAIKALELYKINAKLCDPH", "abundance fitness": "-0.152 ± 0.11"}
{"variant": "KHLIERYYHQLTEGCGNEACTNEFCASCPTFLHMDNNAAAIKALELYKINAKLCDPH", "abundance fitness": "-0.109 ± 0.17"}
{"variant": "KHLIERYYHQLTEGCGNEACTNEFCASCPTFLFMDNNAAAIKALELYKINAKLCDPH", "abundance fitness": "-0.415 ± 0.23"}
{"variant": "KHLIERYYHQLTEGCGNEACTNEFCASCPTFLVMDNNAAAIKALELYKINAKLCDPH", "abundance fitness": "-0.013 ± 0.076"}
{"variant": "KHLIERYYHQLTEGCGNEACTNEFCASCPTFLSMDNNAAAIKALELYKINAKLCDPH", "abundance fitness": "-0.041 ± 0.082"}
{"variant": "KHLIERYYHQLTEGCGNEACTNEFCASCPTFLPMDNNAAAIKALELYKINAKLCDPH", "abundance fitness": "-0.017 ± 0.13"}
{"variant": "KHLIERYYHQLTEGCGNEACTNEFCASCPTFLEMDNNAAAIKALELYKINAKLCDPH", "abundance fitness": "-0.011 ± 0.11"}
{"variant": "KHLIERYYHQLTEGCGNEACTNEFCASCPTFLYMDNNAAAIKALELYKINAKLCDPH", "abundance fitness": "-0.19 ± 0.14"}
{"variant": "KHLIERYYHQLTEGCGNEACTNEFCASCPTFLNMDNNAAAIKALELYKINAKLCDPH", "abundance fitness": "-0.109 ± 0.17"}
{"variant": "KHLIERYYHQLTEGCGNEACTNEFCASCPTFLWMDNNAAAIKALELYKINAKLCDPH", "abundance fitness": "-0.294 ± 0.1"}
{"variant": "KHLIERYYHQLTEGCGNEACTNEFCASCPTFLTMDNNAAAIKALELYKINAKLCDPH", "abundance fitness": "-0.025 ± 0.12"}
{"variant": "KHLIERYYHQLTEGCGNEACTNEFCASCPTFCRMDNNAAAIKALELYKINAKLCDPH", "abundance fitness": "-0.082 ± 0.11"}
{"variant": "KHLIERYYHQLTEGCGNEACTNEFCASCPTFTRMDNNAAAIKALELYKINAKLCDPH", "abundance fitness": "0.098 ± 0.13"}
{"variant": "KHLIERYYHQLTEGCGNEACTNEFCASCPTFWRMDNNAAAIKALELYKINAKLCDPH", "abundance fitness": "-0.193 ± 0.11"}
{"variant": "KHLIERYYHQLTEGCGNEACTNEFCASCPTFDRMDNNAAAIKALELYKINAKLCDPH", "abundance fitness": "-0.049 ± 0.11"}
{"variant": "KHLIERYYHQLTEGCGNEACTNEFCASCPTFRRMDNNAAAIKALELYKINAKLCDPH", "abundance fitness": "-0.033 ± 0.071"}
{"variant": "KHLIERYYHQLTEGCGNEACTNEFCASCPTFHRMDNNAAAIKALELYKINAKLCDPH", "abundance fitness": "-0.093 ± 0.12"}
{"variant": "KHLIERYYHQLTEGCGNEACTNEFCASCPTFVRMDNNAAAIKALELYKINAKLCDPH", "abundance fitness": "0.009 ± 0.067"}
{"variant": "KHLIERYYHQLTEGCGNEACTNEFCASCPTFYRMDNNAAAIKALELYKINAKLCDPH", "abundance fitness": "-0.233 ± 0.18"}
{"variant": "KHLIERYYHQLTEGCGNEACTNEFCASCPTFARMDNNAAAIKALELYKINAKLCDPH", "abundance fitness": "0.006 ± 0.081"}
{"variant": "KHLIERYYHQLTEGCGNEACTNEFCASCPTFSRMDNNAAAIKALELYKINAKLCDPH", "abundance fitness": "-0.053 ± 0.072"}
{"variant": "KHLIERYYHQLTEGCGNEACTNEFCASCPTFNRMDNNAAAIKALELYKINAKLCDPH", "abundance fitness": "0.202 ± 0.14"}
